These results are taken from publication PMC4797284.

Experiment [1] addresses RepSTK1, core domain of the replication initiator protein of cryptic plasmid pSTK1 from Geobacillus stearothermophilus (residues 1-269) (Geobacillus stearothermophilus). Briefly: crystal structure; RepSTK1 crystals, space group P2(1)2(1)2(1), four molecules per asymmetric unit; protein dialysed against 50 mM Tris-HCl pH 7.5, 700 mM KCl; grown at 294 K as described in ref. 27; data at 100 K.

Experiment [2] deals with RepDE, chimera of the 21 kDa fragment of RepD fused to the 14 kDa fragment of RepE (residues 35-314) (Staphylococcus aureus) (UniProt P03065). The experiment is described as follows: crystal structure.
The target in experiment [3] is RepDN, chimera of the 21 kDa fragment of RepD fused to the 14 kDa fragment of RepN (residues 35-314) (Staphylococcus aureus) (UniProt P03065). Briefly: crystal structure.

Consider “RepSTK1, core domain of the replication initiator protein of cryptic plasmid pSTK1 from Geobacillus stearothermophilus (residues 1-269) (domain or fragment)”, for which the stoichiometry N (commonly a count of units in the complex or per binding partner) in experiment [1] was 2.

In the case of “RepDE, chimera of the 21 kDa fragment of RepD fused to the 14 kDa fragment of RepE (residues 35-314) (from UniProt P03065;P12053)”, the stoichiometry N in experiment [2] amounted to 2.

With “RepDN, chimera of the 21 kDa fragment of RepD fused to the 14 kDa fragment of RepN (residues 35-314) (from UniProt P03065;P19529)”, the stoichiometry N in experiment [3] is 2.
